Our source for the stoichiometry N values is article PMC6435465.

Assay [1] deals with chlorinated and reduced SAYabJ (HOCl-treated, then DTT-reduced YabJ from S. aureus Mu50) (Staphylococcus aureus Mu50). Description: SDS/PAGE; 12% polyacrylamide gel, samples treated with 1% SDS and 5% 2-mercaptoethanol at 100°C for 5 min; trimer band at 50 kDa, monomer band at 16 kDa.
The target of assay [2] is YabJ from Staphylococcus aureus Mu50 (SAV0497), native recombinant (Staphylococcus aureus Mu50). Briefly: SEC; size-exclusion chromatography of native and chemically treated SAYabJ; excess HOCl, DTT and H2O2 removed by dialysis beforehand; Superdex 75 (10/300 GL), 50 mM Tris/HCl pH 7.5, 200 mM NaCl named for the purification. A general note: In gel filtration, larger molecules generally elute earlier.

The target is the same in assay [3]. Briefly: crystal structure; 1.75 Å, space group P2(1), six molecules per asymmetric unit; crystals from 25% PEG3350, 100 mM Tris/HCl pH 8.5, 293 K; interfaces calculated with PISA.
Assay [4] shares this target. Description: SDS/PAGE; 12% polyacrylamide gel, samples treated with 1% SDS and 5% 2-mercaptoethanol at 100°C for 5 min; trimer band at 50 kDa, monomer band at 16 kDa.

As a reminder, the stoichiometry N is the number of molecules, sites or subunits per partner or assembly. “chlorinated and reduced SAYabJ (HOCl-treated, then DTT-reduced YabJ from S. aureus Mu50) (natural protein)” had a stoichiometry N in assay [1] of 3.
Consider “YabJ from Staphylococcus aureus Mu50 (SAV0497), native recombinant (natural protein)”, for which the stoichiometry N in assay [2], in assay [3] and in assay [4] was 3 in each case.
